Source: FireProtDB (doi:10.1021/bi00107a010)
Residue numbers refer to the chain shown, from its start.

Details: Hordeum vulgare, Thermal, DSC, glycine-HCl 10 mM, reversible: yes, whole UniProt chain shown; for heat capacity change of unfolding / unfolding free energy: 25 °C

B1: wild type, Q40059 (protein)
chain: MSSMEKKPEGVNIGAGDRQNQKTEWPELVGKSVEEAKKVILQDKPAAQIIVLPVGTIVTMEYRIDRVRLFVDRLDNIAQVPRVG
pH 2.2
  heat capacity change of unfolding: 0.79 kcal/mol/K
  unfolding free energy: 8.12 kJ/mol
pH 2.5
  heat capacity change of unfolding: 0.79 kcal/mol/K
  unfolding free energy: 11.7 kJ/mol
pH 2.8
  heat capacity change of unfolding: 0.79 kcal/mol/K
  unfolding free energy: 15.6 kJ/mol
pH 3.2
  heat capacity change of unfolding: 0.79 kcal/mol/K
  unfolding free energy: 21.8 kJ/mol
pH 3.5
  heat capacity change of unfolding: 0.79 kcal/mol/K
  unfolding free energy: 27.1 kJ/mol

B2: Subtilisin-chymotrypsin inhibitor-2A wild type, P01053 (protein)
chain: B1 chain with M4V, I13T, Q19H, Q21L, A46E, R73K
pH 2.2
  Tm: 41.6 °C
  unfolding enthalpy (calorimetric): 182 kJ/mol
  unfolding enthalpy (van 't Hoff): 177 kJ/mol
pH 2.5
  Tm: 47.2 °C
  unfolding enthalpy (calorimetric): 206 kJ/mol
  unfolding enthalpy (van 't Hoff): 190 kJ/mol
pH 2.8
  Tm: 55.2 °C
  unfolding enthalpy (calorimetric): 221 kJ/mol
  unfolding enthalpy (van 't Hoff): 214 kJ/mol
pH 3.2
  Tm: 64 °C
  unfolding enthalpy (calorimetric): 255 kJ/mol
  unfolding enthalpy (van 't Hoff): 254 kJ/mol
pH 3.5
  Tm: 71 °C
  unfolding enthalpy (calorimetric): 282 kJ/mol
  unfolding enthalpy (van 't Hoff): 288 kJ/mol
